Measurements as given in US9969998B2, “Compositions of adenosine deaminase-2 (ADA2), variants thereof and methods of using same” (Halozyme, Inc., priority 2014, dated 2018).

Legend:
[1] = Heparin binding capture ELISA (biotin-heparin on streptavidin plate); conditions: PEGylated and non-PEGylated forms (Table 22)
[2] = Heparin binding ELISA (heparin coated microtiter plate); conditions: for Average OD450, heparin binding ELISA: 3 μM protein; for Heparin Binding ELISA Average OD450: single and S265N combination variants (Table 34)
In short: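 Plates coated with 200 μg/mL heparin in Na2CO3 buffer pH 9.6 overnight at 4° C, then milk-blocked. FLAG-tagged rHuADA2 variants added at 3 μM for 2 h at room temperature. Bound protein detected with HRP-anti-FLAG and TMB, read as OD450.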

[3] = Heparin-affinity chromatography (heparin-Sepharose, SDS-PAGE); format: binding
Protocol: To assess binding of variants to heparin, heparin-affinity chromatography was employed to identify heparin-bound variants. Heparin binding was tested by mixing 35 μL of rHuADA2 WT and variants with 20 μL heparin-Sepharose™ resin (GE Healthcare, Pittsburgh, Pa.; Cat. No. 17-0998-01), followed by incubating at room temperature for 30 min. The mixture was then centrifuged through a 0.22 μm centrifuge filter and the flow-through, containing the unbound protein, was collected for analysis on an SDS-PAGE gel. 35 μL of 1.5 M NaCl was added to heparin-Sepharose resin and incubated at room temperature (RT) for 10 min to elute the remaining heparin-bound protein from the heparin-Sepharose. Samples of purified WT rHuADA2 and tested variants, before and after mixing with the heparin-Sepharose resin, were analyzed by SDS-PAGE to compare the degree of heparin binding.

[4] = In vivo pharmacokinetics of rHuADA2, variants and PEGylated forms (Example 9); conditions: male BALB/c mice, 7.5 mg/kg intravenous
Excerpt: Fifty four (54) male BALB/c mice were divided into six (6) dosing groups, and were further divided into three (3) groups each for sampling of blood at different time points. Thus, the mice were randomized into eighteen (18) groups total. Mice were weighed prior to the start of the study, and randomized into the 18 groups based upon their body weights. In each sampling group, three groups of (3) mice were used for dosing each test article to prevent oversampling of the blood from the animals. For measurement of baseline ADA2 levels, a blood sample was obtained from 12 randomly chosen mice and plasma was prepared using the anti-coagulant potassium (K3) ethylene diamine tetraacetic acid (K3-EDTA). All blood was collected by submandibular venipuncture.
Each mouse was injected by intravenous tail-vein injection with a 7.5 mg/kg dose of one of six ADA2 test article as set forth in Table 24, i.e. rHuADA2-K374D (K371D by mature numbering), PEG-rHuADA2-K374D (PEG-K371D by mature numbering), rHuADA2-R23E (R20E by mature numbering), PEG-rHuADA2-R23E (PEG-R20E by mature numbering), or WT ADA2 and PEG-WT ADA2.
Blood was collected at designated sampling time points from appropriate groups of mice as indicated below in Table 24 and kept on ice until plasma preparation. Plasma was prepared by centrifuging the blood (500×g for 5 min at 4° C.), transferring the plasma to a fresh tube and immediately freezing at −80° C. until the adenosine deaminase activity assay. Adenosine deaminase activity was determined as described in Example 4. The half-life, or time taken for the activity of ADA2 proteins to be reduced by half, was calculated. Also, total exposure was measured by calculating the Area Under the Concentration-time Curve (AUC).

[5] = Spectrophotometric adenosine deaminase assay at varying pH (pH optimum); format: biochemical

B1: R23E: ADA2 variant SEQ ID NO:30 (protein)
chain: IDETRAHLLLKEKMMRLGGELVLNTKEELANERLMTLKIAEMKEAMRTLIFPPSMHFFQAKHLIERSQVFNILRMMPKGAALHLHDIGIVTMDWLVRNVTYRPHCHICFTPRGIMQFRFAHPTPRPSEKCSKWILLEDYRKRVQNVTEFDDSLLRNFTLVTQHPEVIYTNQNVVWSKFETIFFTISGLIHYAPVFRDYVFRSMQEFYEDNVLYMEIRARLLPVYELSGEHHDEEWSVKTYQEVAQKFVETHPEFIGIKIIYSDHRSKDVAVIAESIRMAMGLRIKFPTVVAGFDLVGHEDTGHSLHDYKEALMIPAKDGVKLPYFFHAGETDWQGTSIDRNILDALMLNTTRIGHGFALSKHPAVRTYSWKKDIPIEVCPISNQVLKLVSDLRNHPVATLMATGHPMVISSDDPAMFGAKGLSYDFYEVFMGIGGMKADLRTLKQLAMNSIKYSTLLESEKNTFMEIWKKRWDKFIADVATK
modifications: human ADA2 R20E, mature numbering
- Average OD450, heparin binding capture ELISA [1]: 0.71
- binding to heparin-coated plates compared to WT ADA2 [2]: attenuated binding to heparin
- Average OD450, heparin binding ELISA ([2]; Set 2): 0.2
- Heparin Binding ELISA Average OD450 [2]: 0.71
- heparin binding compared to WT [3]: attenuated heparin binding
- Heparin Column Binding ([3]; compared to WT rHuADA2, 0.3 mg/mL protein): Reduced
- Half life slow (t1/2) [4]: 2.52 h
- Percent increase in AUC compared to WT ADA2 ([4]; vs non-PEGylated WT): 19%
- Percent increase in t1/2 compared to WT ADA2 ([4]; vs non-PEGylated WT): 119%
- Adenosine deaminase activity Δ [ADO]/min × (−100) ([5]; pH 5.5): 22.84
- Adenosine deaminase activity Δ [ADO]/min × (−100) ([5]; pH 6): 25.64
- Adenosine deaminase activity Δ [ADO]/min × (−100) ([5]; pH 6.5): 29.18
- Adenosine deaminase activity Δ [ADO]/min × (−100) ([5]; pH 6.75): 29.47
- Adenosine deaminase activity Δ [ADO]/min × (−100) ([5]; pH 7): 28.53
- Adenosine deaminase activity Δ [ADO]/min × (−100) ([5]; pH 7.25): 21.71
- Adenosine deaminase activity Δ [ADO]/min × (−100) ([5]; pH 7.4): 19.37
- Adenosine deaminase activity Δ [ADO]/min × (−100) ([5]; pH 7.75): 7.41
- Adenosine deaminase activity Δ [ADO]/min × (−100) ([5]; pH 8): 5.33

B2: WT ADA2: wild type recombinant human adenosine deaminase 2 with FLAG tag, mature ADA2 SEQ ID NO:5 (protein, listed as Homo sapiens)
chain: IDETRAHLLLKEKMMRLGGRLVLNTKEELANERLMTLKIAEMKEAMRTLIFPPSMHFFQAKHLIERSQVFNILRMMPKGAALHLHDIGIVTMDWLVRNVTYRPHCHICFTPRGIMQFRFAHPTPRPSEKCSKWILLEDYRKRVQNVTEFDDSLLRNFTLVTQHPEVIYTNQNVVWSKFETIFFTISGLIHYAPVFRDYVFRSMQEFYEDNVLYMEIRARLLPVYELSGEHHDEEWSVKTYQEVAQKFVETHPEFIGIKIIYSDHRSKDVAVIAESIRMAMGLRIKFPTVVAGFDLVGHEDTGHSLHDYKEALMIPAKDGVKLPYFFHAGETDWQGTSIDRNILDALMLNTTRIGHGFALSKHPAVRTYSWKKDIPIEVCPISNQVLKLVSDLRNHPVATLMATGHPMVISSDDPAMFGAKGLSYDFYEVFMGIGGMKADLRTLKQLAMNSIKYSTLLESEKNTFMEIWKKRWDKFIADVATK
modifications: FLAG tag; ADA2 mature protein
- Average OD450, heparin binding capture ELISA [1]: 2.31
- Average OD450, heparin binding ELISA ([2]; Set 1): 0.49
- Average OD450, heparin binding ELISA ([2]; Set 2): 0.55
- Heparin Binding ELISA Average OD450 [2]: 2.31
- Half life slow (t1/2) [4]: 1.15 h
- Adenosine deaminase activity Δ [ADO]/min × (−100) ([5]; pH 5.5): 21.11
- pH optimum (highest deaminase activity) ([5]; pH 5.5 to 8, 5 mM ADO): approximately 6.5
- Adenosine deaminase activity Δ [ADO]/min × (−100) ([5]; pH 6): 22.06
- Adenosine deaminase activity Δ [ADO]/min × (−100) ([5]; pH 6.5): 33.77
- Adenosine deaminase activity Δ [ADO]/min × (−100) ([5]; pH 6.75): 29.76
- Adenosine deaminase activity Δ [ADO]/min × (−100) ([5]; pH 7): 28.70
- Adenosine deaminase activity Δ [ADO]/min × (−100) ([5]; pH 7.25): 24.47
- Adenosine deaminase activity Δ [ADO]/min × (−100) ([5]; pH 7.4): 21.77
- Adenosine deaminase activity Δ [ADO]/min × (−100) ([5]; pH 7.75): 6.65
- Adenosine deaminase activity Δ [ADO]/min × (−100) ([5]; pH 8): 3.58
